Results taken from the supplement of paper PMC11908140.

B1: library; numbered along this chain (parent)
chain: MRKPRAAVGSGHRKQAASQEGRQKHAKNNSQAKPSACDGLARQPEEVVLQASVSSYHLFRDVAEVTAFRGSLLSWYDQEKRDLPWRRRAEDEMDLDRRAYAVWVSEVMLQQTQVATVINYYTGWMQKWPTLQDLASASLEEVNQLWAGLGYYSRGRRLQEGARKVVEELGGHMPRTAETLQQLLPGVGRYTAGAIASIAFGQATGVVDGNVARVLCRVRAIGADPSSTLVSQQLWGLAQQLVDPARPGDFNQAAMELGATVCTPQRPLCSQCPVESLCRARQRVEQEQLLASGSLSGSPDVEECAPNTGQCHLCLPPSEPWDQTLGVVNFPRKASRKPPREESSATCVLEQPGALGAQILLVQRPNSGLLAGLWEFPSVTWEPSEQLQRKALLQELQRWAGPLPATHLRHLGEVVHTFSHIKLTYQVYGLALEGQTPVTTVPPGARWLTQEEFHTAAVSTAMKKVFRVYQGQQPGTCMGSKRSQVSSPCSRKKPRMGQQVLDNFFRSHISTDAHSLNSAAQ

Variants of: B1
Experiment: 8OG:A repair function score (normalized; synonymous = 0, nonsense = -1) (normalized log-likelihood score); higher = more repair activity (WT-like)
Details: with 8OG:A DNA repair reporter (GFP) in HEK-293 MUTYH KO cells
Experimental: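 Saturation mutagenesis (NNN codon scan) of the MUTYH cDNA (521-aa nuclear isoform NM_001048174.1 / NP_001041639), stably expressed under doxycycline induction in HEK-293 MUTYH knockout cells. Cells were co-transfected with an 8OG:A-bearing GFP repair reporter plus mCherry and sorted 72 h later into GFP+ and GFP− bins, three replicates per tile. The Rosace log2 enrichment (GFP+ vs GFP−) was converted per tile to a normalized function score with synonymous variants centered at 0 and nonsense variants (codons 1-471) at -1; low-abundance variants were removed.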

Row | Variant | 8OG:A repair function score
1 | MRKPRAAVGSGHRKQAASQEGRQKHAKNNSQAKPSACDGLARQPEEVVLQASVSSYHLFRDVAEVTAFRGSLLSWYDQEKRDLPWRRRAEDEMDLDRRAYAVWVSEVMLQQTQVATVINYYTGWMQKWPTLQDWASASLEEVNQLWAGLGYYSRGRRLQEGARKVVEELGGHMPRTAETLQQLLPGVGRYTAGAIASIAFGQATGVVDGNVARVLCRVRAIGADPSSTLVSQQLWGLAQQLVDPARPGDFNQAAMELGATVCTPQRPLCSQCPVESLCRARQRVEQEQLLASGSLSGSPDVEECAPNTGQCHLCLPPSEPWDQTLGVVNFPRKASRKPPREESSATCVLEQPGALGAQILLVQRPNSGLLAGLWEFPSVTWEPSEQLQRKALLQELQRWAGPLPATHLRHLGEVVHTFSHIKLTYQVYGLALEGQTPVTTVPPGARWLTQEEFHTAAVSTAMKKVFRVYQGQQPGTCMGSKRSQVSSPCSRKKPRMGQQVLDNFFRSHISTDAHSLNSAAQ [L134W] | -0.665
2 | MRKPRAAVGSGHRKQAASQEGRQKHAKNNSQAKPSACDGLARQPEEVVLQASVSSYHLFRDVAEVTAFRGSLLSWYDQEKRDLPWRRRAEDEMDLDRRAYAVWVSEVMLQQTQVATVINYYTGWMQKWPTLQDSASASLEEVNQLWAGLGYYSRGRRLQEGARKVVEELGGHMPRTAETLQQLLPGVGRYTAGAIASIAFGQATGVVDGNVARVLCRVRAIGADPSSTLVSQQLWGLAQQLVDPARPGDFNQAAMELGATVCTPQRPLCSQCPVESLCRARQRVEQEQLLASGSLSGSPDVEECAPNTGQCHLCLPPSEPWDQTLGVVNFPRKASRKPPREESSATCVLEQPGALGAQILLVQRPNSGLLAGLWEFPSVTWEPSEQLQRKALLQELQRWAGPLPATHLRHLGEVVHTFSHIKLTYQVYGLALEGQTPVTTVPPGARWLTQEEFHTAAVSTAMKKVFRVYQGQQPGTCMGSKRSQVSSPCSRKKPRMGQQVLDNFFRSHISTDAHSLNSAAQ [L134S] | -0.514
3 | MRKPRAAVGSGHRKQAASQEGRQKHAKNNSQAKPSACDGLARQPEEVVLQASVSSYHLFRDVAEVTAFRGSLLSWYDQEKRDLPWRRRAEDEMDLDRRAYAVWVSEVMLQQTQVATVINYYTGWMQKWPTLQDRASASLEEVNQLWAGLGYYSRGRRLQEGARKVVEELGGHMPRTAETLQQLLPGVGRYTAGAIASIAFGQATGVVDGNVARVLCRVRAIGADPSSTLVSQQLWGLAQQLVDPARPGDFNQAAMELGATVCTPQRPLCSQCPVESLCRARQRVEQEQLLASGSLSGSPDVEECAPNTGQCHLCLPPSEPWDQTLGVVNFPRKASRKPPREESSATCVLEQPGALGAQILLVQRPNSGLLAGLWEFPSVTWEPSEQLQRKALLQELQRWAGPLPATHLRHLGEVVHTFSHIKLTYQVYGLALEGQTPVTTVPPGARWLTQEEFHTAAVSTAMKKVFRVYQGQQPGTCMGSKRSQVSSPCSRKKPRMGQQVLDNFFRSHISTDAHSLNSAAQ [L134R] | -1.01
4 | MRKPRAAVGSGHRKQAASQEGRQKHAKNNSQAKPSACDGLARQPEEVVLQASVSSYHLFRDVAEVTAFRGSLLSWYDQEKRDLPWRRRAEDEMDLDRRAYAVWVSEVMLQQTQVATVINYYTGWMQKWPTLQDTASASLEEVNQLWAGLGYYSRGRRLQEGARKVVEELGGHMPRTAETLQQLLPGVGRYTAGAIASIAFGQATGVVDGNVARVLCRVRAIGADPSSTLVSQQLWGLAQQLVDPARPGDFNQAAMELGATVCTPQRPLCSQCPVESLCRARQRVEQEQLLASGSLSGSPDVEECAPNTGQCHLCLPPSEPWDQTLGVVNFPRKASRKPPREESSATCVLEQPGALGAQILLVQRPNSGLLAGLWEFPSVTWEPSEQLQRKALLQELQRWAGPLPATHLRHLGEVVHTFSHIKLTYQVYGLALEGQTPVTTVPPGARWLTQEEFHTAAVSTAMKKVFRVYQGQQPGTCMGSKRSQVSSPCSRKKPRMGQQVLDNFFRSHISTDAHSLNSAAQ [L134T] | -0.714
5 | MRKPRAAVGSGHRKQAASQEGRQKHAKNNSQAKPSACDGLARQPEEVVLQASVSSYHLFRDVAEVTAFRGSLLSWYDQEKRDLPWRRRAEDEMDLDRRAYAVWVSEVMLQQTQVATVINYYTGWMQKWPTLQDVASASLEEVNQLWAGLGYYSRGRRLQEGARKVVEELGGHMPRTAETLQQLLPGVGRYTAGAIASIAFGQATGVVDGNVARVLCRVRAIGADPSSTLVSQQLWGLAQQLVDPARPGDFNQAAMELGATVCTPQRPLCSQCPVESLCRARQRVEQEQLLASGSLSGSPDVEECAPNTGQCHLCLPPSEPWDQTLGVVNFPRKASRKPPREESSATCVLEQPGALGAQILLVQRPNSGLLAGLWEFPSVTWEPSEQLQRKALLQELQRWAGPLPATHLRHLGEVVHTFSHIKLTYQVYGLALEGQTPVTTVPPGARWLTQEEFHTAAVSTAMKKVFRVYQGQQPGTCMGSKRSQVSSPCSRKKPRMGQQVLDNFFRSHISTDAHSLNSAAQ [L134V] | 0.0486
6 | MRKPRAAVGSGHRKQAASQEGRQKHAKNNSQAKPSACDGLARQPEEVVLQASVSSYHLFRDVAEVTAFRGSLLSWYDQEKRDLPWRRRAEDEMDLDRRAYAVWVSEVMLQQTQVATVINYYTGWMQKWPTLQDQASASLEEVNQLWAGLGYYSRGRRLQEGARKVVEELGGHMPRTAETLQQLLPGVGRYTAGAIASIAFGQATGVVDGNVARVLCRVRAIGADPSSTLVSQQLWGLAQQLVDPARPGDFNQAAMELGATVCTPQRPLCSQCPVESLCRARQRVEQEQLLASGSLSGSPDVEECAPNTGQCHLCLPPSEPWDQTLGVVNFPRKASRKPPREESSATCVLEQPGALGAQILLVQRPNSGLLAGLWEFPSVTWEPSEQLQRKALLQELQRWAGPLPATHLRHLGEVVHTFSHIKLTYQVYGLALEGQTPVTTVPPGARWLTQEEFHTAAVSTAMKKVFRVYQGQQPGTCMGSKRSQVSSPCSRKKPRMGQQVLDNFFRSHISTDAHSLNSAAQ [L134Q] | -1.24
